According to PMC13598225, “Alternative splicing of synaptotagmin 7 regulates oligomerization and short-term synaptic plasticity” (Proceedings of the National Academy of Sciences of the …, 2026):

Molecular target: T1, α-syt7cyto immobilised for HaloTag pull-down (UniProt Q9R0N7-1 38-403)
T1 construct: synaptotagmin 7, α splice variant, cytoplasmic domain; The sentence on syt1-fl says only 'immobilized syt7'; also called immobilized syt7
Assay: pull-down; HaloTag pull-down; syt7 immobilised; syt1-fl reconstituted into liposomes; Ca2+ against EGTA
Settings: both partners purified

T1 sequence (Q9R0N7 38-403): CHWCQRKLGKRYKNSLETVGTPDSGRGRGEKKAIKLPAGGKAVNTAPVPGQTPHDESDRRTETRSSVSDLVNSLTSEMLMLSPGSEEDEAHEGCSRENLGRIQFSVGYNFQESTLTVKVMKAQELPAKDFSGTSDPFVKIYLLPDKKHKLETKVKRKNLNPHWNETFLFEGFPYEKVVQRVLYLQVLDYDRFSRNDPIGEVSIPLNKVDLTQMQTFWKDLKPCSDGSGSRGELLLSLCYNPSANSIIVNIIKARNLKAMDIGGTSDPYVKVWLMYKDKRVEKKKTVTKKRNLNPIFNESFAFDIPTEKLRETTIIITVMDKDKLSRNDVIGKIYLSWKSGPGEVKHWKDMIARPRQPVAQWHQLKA

B1: syt1-fl reconstituted into liposomes (full-length synaptotagmin 1) (natural protein, UniProt P21707 1-421, looked up)
chain: MVSASHPEALAAPVTTVATLVPHNATEPASPGEGKEDAFSKLKQKFMNELHKIPLPPWALIAIAIVAVLLVVTCCFCVCKKCLFKKKNKKKGKEKGGKNAINMKDVKDLGKTMKDQALKDDDAETGLTDGEEKEEPKEEEKLGKLQYSLDYDFQNNQLLVGIIQAAELPALDMGGTSDPYVKVFLLPDKKKKFETKVHRKTLNPVFNEQFTFKVPYSELGGKTLVMAVYDFDRFSKHDIIGEFKVPMNTVDFGHVTEEWRDLQSAEKEEQEKLGDICFSLRYVPTAGKLTVVILEAKNLKKMDVGGLSDPYVKIHLMQNGKRLKKKKTTIKKNTLNPYYNESFSFEVPFEQIQKVQVVVTVLDYDKIGKNDAIGKVFVGYNSTGAELRHWSDMLANPRRPIAQWHTLQVEEEVDAMLAVKK
notes: synaptotagmin 1, full length (fl); Construct and host are in SI Appendix; source: reconstituted into liposomes
binding in Ca2+ relative to EGTA (ratio): 1.46 ± 0.15
